# Source: patent publication US20240317847A1
# Legend:
# [1] = molecular target: human IL-11 (human) (UniProt P20809); test: cell-based or functional assay
# [2] = molecular target: murine IL-11 (mouse) (UniProt P47873); test: cell-based or functional assay
# [3] = molecular target: human IL-11 (human) (UniProt P20809); test: SPR (Biacore), antibody captured, IL-11 at single concentration 200 nM
# [4] = molecular target: murine IL-11 (mouse) (UniProt P47873); test: as above
# [5] = molecular target: human IL-11 (human) (UniProt P20809); test: Di-complex ELISA, canine IL11RA-hFc binding to immobilized hIL-11, competition
# [6] = molecular target: murine IL-11 (mouse) (UniProt P47873); test: Di-complex ELISA, canine IL11RA-hFc binding to immobilized mIL-11, competition
# [7] = molecular target: human IL-11 (human) (UniProt P20809); test: Tri-complex ELISA, hIL-11 + mIL-11Ra-Fc + hgp130-Fc, inhibition of complex formation
# [8] = molecular target: murine IL-11 (mouse) (UniProt P47873); test: Tri-complex ELISA, mIL-11 + mIL-11Ra-Fc + mgp130-Fc, inhibition of complex formation
# [9] = molecular target: IL-11 [218-IL from R&D Systems, Inc.] (human) (UniProt P20809); test: cell-based or functional assay
# IL-11 [218-IL from R&D Systems, Inc.] (human), sequence (P20809 22-199 limits assumed): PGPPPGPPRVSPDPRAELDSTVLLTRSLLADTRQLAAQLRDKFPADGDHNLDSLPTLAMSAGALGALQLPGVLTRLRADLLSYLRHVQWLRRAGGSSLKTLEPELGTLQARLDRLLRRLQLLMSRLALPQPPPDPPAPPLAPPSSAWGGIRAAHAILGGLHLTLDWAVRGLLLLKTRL
# [10] = molecular target: human IL-11 (Invigate, e.g., lot #C121021-19) (human) (UniProt P20809); test: cell-based or functional assay
# human IL-11 (Invigate, e.g., lot #C121021-19) (human), sequence (P20809 22-199): as the sequence (P20809 22-199 limits assumed) above
# [11] = molecular target: murine IL-11 (Invigate, e.g., lot #C210819-09) (mouse) (UniProt P47873); test: cell-based or functional assay
# murine IL-11 (Invigate, e.g., lot #C210819-09) (mouse), sequence (P47873 22-199): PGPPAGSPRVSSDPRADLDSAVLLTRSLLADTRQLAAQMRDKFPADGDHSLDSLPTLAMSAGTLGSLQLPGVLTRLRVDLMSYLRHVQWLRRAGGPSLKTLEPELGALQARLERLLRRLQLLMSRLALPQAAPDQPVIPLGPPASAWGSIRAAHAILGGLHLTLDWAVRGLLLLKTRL
# [12] = molecular target: human IL-11 (Invigate, e.g., lot #C121021-19) (human) (UniProt P20809); test: SPR, Biacore T200, 25 C; antibody captured via anti-mouse Fc, IL-11 as analyte, 1:1 Langmuir fit
# [13] = molecular target: murine IL-11 (Invigate, e.g., lot #C210819-09) (mouse) (UniProt P47873); test: as above
# [14] = molecular target: human IL-11 (Invigate, e.g., lot #C121021-19) (human) (UniProt P20809); test: Tri-complex ELISA: antibody titrated against 8 nM human IL-11, 2 nM human gp130-human-Fc and 2 nM murine IL11RA-murine-Fc
# [15] = molecular target: murine IL-11 (Invigate, e.g., lot #C210819-09) (mouse) (UniProt P47873); test: Tri-complex ELISA: antibody titrated against 8 nM murine IL-11, 2 nM murine gp130-human-Fc and 2 nM murine IL11RA-murine-Fc
# [16] = molecular target: human IL-11 (Invigate, e.g., lot #C121021-19) (human) (UniProt P20809); test: Di-complex ELISA: biotinylated human IL-11 on streptavidin plate, antibody titrated against 2 nM canine IL11RA-human-Fc (competitor)
# [17] = molecular target: murine IL-11 (Invigate, e.g., lot #C210819-09) (mouse) (UniProt P47873); test: Di-complex ELISA: biotinylated murine IL-11 on streptavidin plate, antibody titrated against 2 nM canine IL11RA-human-Fc (competitor)
# murine IL-11 (mouse), sequence (P47873 22-199): as above
# human IL-11 (human), sequence (P20809 22-199): as the sequence (P20809 22-199 limits assumed) above
Substance,"Efficacy (%), Stat3 reporter gene assay [1]","Efficacy (%), Stat3 reporter gene assay [2]","IC50, Stat3 reporter gene assay [2]",Kd [3],Kd [4],Efficacy (%) [5],IC50 [5],Efficacy (%) [6],IC50 [6],Efficacy (%) [7],IC50 [7],Efficacy (%) [8],IC50 [8],further results
LS-C104441 (antibody),42.6%,88%,3.9 nM,3.9 nM,2.2 nM,71.5%,5.3 nM,91.2%,3.5 nM,65.6%,20 nM,98.4%,3.8 nM,–
"IL-11 function blocking polyclonal antibody AF-418-NA (R&D Systems, Inc.)",–,–,–,–,–,–,–,–,–,–,–,–,–,"secretion of VEGF-A, primary human fibroid slice assay (ng/mg protein) [9]: 17.3"
MA5-23711 (antibody),19.9%,47.6%,–,3.6 nM,2 nM,51.1%,60 nM,70.5%,29 nM,34.1%,19 nM,62.3%,–,–
LS-C193526 (antibody),52.7%,88.3%,5.6 nM,6.3 nM,6.2 nM,90.1%,10 nM,96.2%,6.5 nM,78.5%,10 nM,90.3%,6.6 nM,"IC50, Stat3 reporter gene assay [1]: 50 nM"
GTX52814 (antibody),5.1%,75.5%,–,3.3 nM,2 nM,74.9%,1.9 nM,89.9%,4.7 nM,36.9%,14 nM,106%,17 nM,–
"TPP-14250 (R&D Systems, #MAB218) (antibody)",–,–,–,–,–,–,–,–,–,–,–,–,–,"Efficacy (%), Stat3 reporter gene assay, human IL11RA, 0.78 nM hIL-11 [10]: 27.1%; IC50 [M], Stat3 reporter gene assay, HEK 293F transfected with human IL11RA, 0.78 nM hIL-11 [10]: 2.41e-10 M; Efficacy (%), Stat3 reporter gene assay, mouse Il11ra, 3.13 nM mIL-11 [11]: 69.1%; IC50 [M], Stat3 reporter gene assay, HEK 293F transfected with mouse Il11ra, 3.13 nM mIL-11 [11]: 1.42e-07 M; Kd [12]: 19 nM; Kd [13]: 3.8 nM; Efficacy (%) [14]: 67.2%; IC50 [14]: 38 nM; Efficacy (%) [15]: 60.9%; IC50 [15]: 17 nM; Efficacy (%) [16]: 67.2%; IC50 [16]: 7.4 nM; Efficacy (%) [17]: 92.3%; IC50 [17]: 1.3 nM"
